According to patent US20210147523A1 (TEIJIN PHARMA, published 2021):

T1: human SPNS2 G134A mutant (human, UniProt Q8IVW8 1-549)
T1 sequence: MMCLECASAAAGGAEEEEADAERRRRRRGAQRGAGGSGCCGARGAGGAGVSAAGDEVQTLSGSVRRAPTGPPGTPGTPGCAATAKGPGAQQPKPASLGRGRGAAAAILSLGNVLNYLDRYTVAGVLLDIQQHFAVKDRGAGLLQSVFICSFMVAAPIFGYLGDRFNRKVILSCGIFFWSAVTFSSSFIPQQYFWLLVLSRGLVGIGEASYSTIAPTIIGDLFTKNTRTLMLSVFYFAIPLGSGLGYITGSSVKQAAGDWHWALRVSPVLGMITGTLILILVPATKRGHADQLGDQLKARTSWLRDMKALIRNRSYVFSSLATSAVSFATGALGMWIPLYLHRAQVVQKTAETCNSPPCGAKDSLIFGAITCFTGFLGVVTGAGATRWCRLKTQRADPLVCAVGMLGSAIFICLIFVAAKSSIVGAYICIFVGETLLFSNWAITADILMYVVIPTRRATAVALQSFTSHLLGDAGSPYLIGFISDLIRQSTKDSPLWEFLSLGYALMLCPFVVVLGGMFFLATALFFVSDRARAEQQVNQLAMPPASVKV

T2: human SPNS2 Q131A mutant (human, UniProt Q8IVW8 1-549)
T2 sequence: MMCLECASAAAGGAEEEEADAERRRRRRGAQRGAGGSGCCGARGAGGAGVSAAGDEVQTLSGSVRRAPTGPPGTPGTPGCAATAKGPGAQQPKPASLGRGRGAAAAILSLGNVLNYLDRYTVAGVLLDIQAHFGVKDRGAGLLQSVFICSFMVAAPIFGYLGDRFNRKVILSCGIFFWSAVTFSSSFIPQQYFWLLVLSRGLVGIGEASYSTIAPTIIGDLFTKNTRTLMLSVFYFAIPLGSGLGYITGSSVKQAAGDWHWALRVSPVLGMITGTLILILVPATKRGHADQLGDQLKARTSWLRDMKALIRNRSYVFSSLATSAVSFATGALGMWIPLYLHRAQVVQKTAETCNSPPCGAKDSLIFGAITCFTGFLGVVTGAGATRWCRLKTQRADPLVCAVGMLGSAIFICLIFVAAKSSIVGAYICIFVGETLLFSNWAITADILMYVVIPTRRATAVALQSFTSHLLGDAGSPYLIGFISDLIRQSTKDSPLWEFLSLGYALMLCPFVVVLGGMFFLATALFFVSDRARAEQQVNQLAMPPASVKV

T3: human SPNS2 L196A mutant (human, UniProt Q8IVW8 1-549)
T3 sequence: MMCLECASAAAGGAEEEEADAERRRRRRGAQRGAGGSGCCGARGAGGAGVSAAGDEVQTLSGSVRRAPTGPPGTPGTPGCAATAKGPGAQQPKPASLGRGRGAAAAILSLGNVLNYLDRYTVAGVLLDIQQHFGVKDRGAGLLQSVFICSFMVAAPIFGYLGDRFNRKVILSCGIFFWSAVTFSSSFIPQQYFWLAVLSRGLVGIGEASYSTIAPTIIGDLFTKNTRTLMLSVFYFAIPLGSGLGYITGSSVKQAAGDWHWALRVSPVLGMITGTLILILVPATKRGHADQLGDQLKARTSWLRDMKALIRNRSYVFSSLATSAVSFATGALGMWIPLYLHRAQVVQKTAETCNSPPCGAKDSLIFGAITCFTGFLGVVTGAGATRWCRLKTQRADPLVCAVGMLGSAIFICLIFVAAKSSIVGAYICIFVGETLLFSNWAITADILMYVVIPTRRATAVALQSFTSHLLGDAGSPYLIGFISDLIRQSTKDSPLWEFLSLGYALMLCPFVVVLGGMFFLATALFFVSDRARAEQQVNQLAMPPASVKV

T4: human SPNS2 I129A mutant (human, UniProt Q8IVW8 1-549)
T4 sequence: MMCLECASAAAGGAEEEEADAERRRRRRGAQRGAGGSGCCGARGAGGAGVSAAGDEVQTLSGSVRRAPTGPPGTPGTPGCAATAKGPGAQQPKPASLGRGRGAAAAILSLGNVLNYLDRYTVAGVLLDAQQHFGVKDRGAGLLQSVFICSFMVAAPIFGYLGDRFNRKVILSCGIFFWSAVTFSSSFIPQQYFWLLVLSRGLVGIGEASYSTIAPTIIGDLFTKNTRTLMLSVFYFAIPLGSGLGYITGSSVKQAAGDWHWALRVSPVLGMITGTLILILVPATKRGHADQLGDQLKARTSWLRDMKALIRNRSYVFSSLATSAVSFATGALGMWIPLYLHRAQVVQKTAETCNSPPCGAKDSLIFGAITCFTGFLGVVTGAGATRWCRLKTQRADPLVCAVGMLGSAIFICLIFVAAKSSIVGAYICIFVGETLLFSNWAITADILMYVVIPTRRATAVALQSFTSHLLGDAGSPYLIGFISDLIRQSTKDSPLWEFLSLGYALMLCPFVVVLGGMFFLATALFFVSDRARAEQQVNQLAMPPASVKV

T5: human SPNS2 Q190A mutant (human, UniProt Q8IVW8 1-549)
T5 sequence: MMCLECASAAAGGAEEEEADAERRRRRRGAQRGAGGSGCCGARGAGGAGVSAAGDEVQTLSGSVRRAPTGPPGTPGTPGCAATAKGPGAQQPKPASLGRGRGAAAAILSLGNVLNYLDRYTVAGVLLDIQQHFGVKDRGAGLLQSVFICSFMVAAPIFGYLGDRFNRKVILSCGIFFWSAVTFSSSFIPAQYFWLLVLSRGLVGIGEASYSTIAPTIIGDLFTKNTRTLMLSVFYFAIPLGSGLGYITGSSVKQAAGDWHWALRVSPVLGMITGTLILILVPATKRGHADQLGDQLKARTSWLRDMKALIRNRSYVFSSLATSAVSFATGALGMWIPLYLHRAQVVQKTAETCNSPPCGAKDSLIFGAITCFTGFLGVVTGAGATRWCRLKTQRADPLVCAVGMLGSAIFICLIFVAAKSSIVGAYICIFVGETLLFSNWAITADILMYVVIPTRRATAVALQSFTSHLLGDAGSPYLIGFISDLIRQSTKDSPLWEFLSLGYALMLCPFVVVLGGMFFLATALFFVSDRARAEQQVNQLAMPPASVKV


How the values were obtained:
Experiment in all cases: flow cytometry
human SPNS2 G134A mutant = target: T1, human SPNS2 G134A mutant
human SPNS2 Q131A mutant = target: T2, human SPNS2 Q131A mutant
human SPNS2 L196A mutant = target: T3, human SPNS2 L196A mutant
human SPNS2 I129A mutant = target: T4, human SPNS2 I129A mutant
human SPNS2 Q190A mutant = target: T5, human SPNS2 Q190A mutant

Row | Binder | binding ratio vs native type (human SPNS2 G134A mutant) [ratio] | binding ratio vs native type (human SPNS2 Q131A mutant) [ratio] | binding ratio vs native type (human SPNS2 L196A mutant) [ratio] | binding ratio vs native type (human SPNS2 I129A mutant) [ratio] | binding ratio vs native type (human SPNS2 Q190A mutant) [ratio]
1 | 64-0807A (antibody, IgG2b, V domains shown) VH: EVQVVESGGGLVQPGRSMKLSCAALGFTFRDYYMAWVRQTPTKGLEWVAAISTGGGNTYYRDSVKGRFTISRDNAKSTLYLQMDSLRSDDTATYYCARNPYGNYFDYWGQGVMVTVSS VL: QFVLSQPNSVSTNLGSTVKLSCKRSTGNIGSNYVHWYQRHEGRSPTTLIYRDDKRPNGVPDRFSGSIDRSSNSALLTINNVQTEDEADYFCQSYSGGMYLFGGGTKLTVL | < 0.5 | < 0.5 |  |  | 
2 | 65-0810G (antibody, IgG2b, V domains shown) VH: EVHLVESGGGLVQPGRSMKLSCTASGFTFNNYYMAWVRQAPTKGLEWVASISTGGGYTYYRDSVKGRFTISRDNTGNTLYLQMDSLRSEDTATYYCARCWELPYWGQGVMVTVSS VL: QFVLTQPNSVSTNLGSTVKLSCRRSSGNIGNNYVNWYRQHEGRSPTTMIYRDDTRPDGVPNRFSGSIDRSSNSALLTINNVRPEDEAYYFCQSYSGSIYIFGGGTKLTVL |  | < 0.5 | < 0.5 | < 0.5 | 
3 | 93-1310F (antibody, IgG2b, V domains shown) VH: EVQLVETGGGLVQPGSSLKLSCATSGFTFSDTWMSWVRQAPGKGLEWVALIKDKNSNYEANYAESVKGRFTISRDDSKRRVYLQMFTLRDQDTATYYCTSHEDFYYYSSYYFDYWGHGVMVTVSS VL: DIVLTQSPATLSVTPGESVSLSCRASQGISTSIHWYQQKSNGSPRLLIKYASQSISGIPSRFSGSGSGTDFTLRINRVESEDFSVYYCQQTYSLPLTFGSGTRLEIKR |  |  |  |  | < 0.5
4 | 96-1403F (antibody, IgG2b, V domains shown) VH: EVQLVETGGGLVRPGSSLKLSCATSGFTFSDTWMSWVRQAPGKGLEWVALIKDKNSNSEANYAESIKGRFTISRDDSKSRVYLQMNTLRDQDTATYYCTRHEDFYYYSGYYFDYWGQGVMVTVSS VL: DIVLTQSPPTLSVTPGESVSLSCRASQGISTSIHWYQQRSNESPRLLIKYASQSIAGIPSRFSGSGSGTDFILSINRVESEDFSVYYCQQTYSLPLTFGPGTKLEVKR |  |  |  |  | < 0.5
